Broadly, the EC50 is the concentration at which the effect is half-maximal. Lower therefore signals greater potency.

We go through 1 molecule from patent publication EP4578463A1, “ENDO-180 TARGETED ANTIBODY-DRUG CONJUGATES” (Oncomatryx Biopharma, S.L., priority 2023, dated 2025).

For experiment [1], the target named is T1, human Endo180-moFc domains I-IV (aa 31-513) (human, UniProt Q9UBG0 31-513).
T1 construct: also called huEndo180 (DI-IV); huEndo180-moFc DI-IV; not shown: murine Fc domain
T1 sequence: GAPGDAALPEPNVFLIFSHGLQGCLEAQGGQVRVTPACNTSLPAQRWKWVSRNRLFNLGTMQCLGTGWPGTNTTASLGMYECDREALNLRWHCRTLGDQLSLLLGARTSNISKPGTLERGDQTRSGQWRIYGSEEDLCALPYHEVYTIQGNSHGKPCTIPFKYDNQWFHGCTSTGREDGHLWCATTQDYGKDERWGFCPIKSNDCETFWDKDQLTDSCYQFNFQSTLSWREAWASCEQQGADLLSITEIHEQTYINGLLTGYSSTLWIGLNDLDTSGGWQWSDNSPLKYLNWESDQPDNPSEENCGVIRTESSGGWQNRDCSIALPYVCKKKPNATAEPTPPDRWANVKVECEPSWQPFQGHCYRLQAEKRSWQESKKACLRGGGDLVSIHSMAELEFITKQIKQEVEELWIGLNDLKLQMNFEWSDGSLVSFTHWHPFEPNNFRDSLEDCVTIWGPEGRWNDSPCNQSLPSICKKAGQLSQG
Nature of the experiment: ELISA, immobilized huEndo180-moFc.

Experiment [2] addresses T2, human Endo180-moFc domains I-III (aa 31-370) (human, UniProt Q9UBG0 31-370).
T2 construct: also called huEndo180 (DI-III); huEndo180-moFc DI-III; not shown: murine Fc domain
T2 sequence: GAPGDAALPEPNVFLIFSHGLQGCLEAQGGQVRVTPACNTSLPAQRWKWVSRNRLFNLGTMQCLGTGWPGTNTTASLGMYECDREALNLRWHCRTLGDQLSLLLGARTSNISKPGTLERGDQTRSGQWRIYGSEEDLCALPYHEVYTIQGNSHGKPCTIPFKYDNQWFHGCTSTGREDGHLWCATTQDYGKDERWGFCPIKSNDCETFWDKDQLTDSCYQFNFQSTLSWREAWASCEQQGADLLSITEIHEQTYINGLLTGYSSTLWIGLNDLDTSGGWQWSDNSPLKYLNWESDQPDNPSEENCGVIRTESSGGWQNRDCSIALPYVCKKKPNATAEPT
Description: ELISA, immobilized huEndo180-moFc. (In general: An ELISA detects its analyte on a solid surface through an enzyme-linked reagent.)

Experiment [3] has as its target T3, human Endo180-moFc DI-DIV variant region 1 (N233E, D234G, T237S, Q243P, D246S) (human, UniProt Q9UBG0 31-513).
T3 construct: Domain III residues swapped to those of MRC1; not shown: murine Fc
T3 chain: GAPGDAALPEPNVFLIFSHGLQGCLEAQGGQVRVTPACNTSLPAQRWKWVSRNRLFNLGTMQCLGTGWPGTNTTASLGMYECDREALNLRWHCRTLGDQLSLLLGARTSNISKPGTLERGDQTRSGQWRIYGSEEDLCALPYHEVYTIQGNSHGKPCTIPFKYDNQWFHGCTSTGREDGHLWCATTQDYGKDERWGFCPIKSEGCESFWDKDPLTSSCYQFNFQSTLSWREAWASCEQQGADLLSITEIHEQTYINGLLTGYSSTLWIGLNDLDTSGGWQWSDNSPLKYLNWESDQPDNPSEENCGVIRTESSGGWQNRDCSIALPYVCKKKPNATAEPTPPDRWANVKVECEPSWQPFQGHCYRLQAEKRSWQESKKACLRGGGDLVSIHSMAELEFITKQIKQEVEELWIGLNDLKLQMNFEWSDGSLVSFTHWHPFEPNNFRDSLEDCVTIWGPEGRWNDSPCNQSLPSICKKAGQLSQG
Nature of the experiment: ELISA, 10 nM IgG on immobilized variant (3 µg/ml).

For experiment [4], the target named is T4, human Endo180-moFc DI-DIV variant region 2 (Q254K, T256A, S258T, E261Q) (human, UniProt Q9UBG0 31-513).
T4 construct: not shown: murine Fc
T4 chain: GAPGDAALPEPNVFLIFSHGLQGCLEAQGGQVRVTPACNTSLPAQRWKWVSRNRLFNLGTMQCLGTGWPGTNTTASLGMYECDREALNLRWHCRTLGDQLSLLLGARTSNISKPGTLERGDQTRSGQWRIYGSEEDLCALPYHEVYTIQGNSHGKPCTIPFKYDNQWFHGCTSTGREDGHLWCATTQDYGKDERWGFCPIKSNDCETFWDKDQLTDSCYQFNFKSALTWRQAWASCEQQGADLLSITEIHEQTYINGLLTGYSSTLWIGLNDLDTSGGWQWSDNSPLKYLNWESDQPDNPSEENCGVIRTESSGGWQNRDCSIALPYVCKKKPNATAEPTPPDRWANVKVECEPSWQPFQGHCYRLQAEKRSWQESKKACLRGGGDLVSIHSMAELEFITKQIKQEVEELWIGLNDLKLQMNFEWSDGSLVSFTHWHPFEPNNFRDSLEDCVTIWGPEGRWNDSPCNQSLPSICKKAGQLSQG
Nature of the experiment: ELISA, 10 nM IgG on immobilized variant (3 µg/ml).

The target of experiment [5] is T5, human Endo180-moFc DI-DIV variant region 4 (D304S, T305F, S306N) (human, UniProt Q9UBG0 31-513).
T5 construct: not shown: murine Fc
T5 chain: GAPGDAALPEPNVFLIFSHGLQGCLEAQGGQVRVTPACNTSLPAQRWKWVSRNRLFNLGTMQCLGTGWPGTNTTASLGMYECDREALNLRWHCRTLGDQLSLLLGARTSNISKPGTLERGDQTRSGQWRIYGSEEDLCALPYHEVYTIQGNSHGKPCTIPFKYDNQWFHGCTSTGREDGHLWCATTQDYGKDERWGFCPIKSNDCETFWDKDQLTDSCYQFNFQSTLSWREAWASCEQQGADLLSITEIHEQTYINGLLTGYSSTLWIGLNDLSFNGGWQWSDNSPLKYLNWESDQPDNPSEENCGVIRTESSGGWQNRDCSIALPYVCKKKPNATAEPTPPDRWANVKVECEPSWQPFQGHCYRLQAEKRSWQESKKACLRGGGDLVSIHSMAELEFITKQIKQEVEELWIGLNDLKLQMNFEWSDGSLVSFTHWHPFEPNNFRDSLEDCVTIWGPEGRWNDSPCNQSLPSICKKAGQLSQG
Nature of the experiment: ELISA, 10 nM IgG on immobilized variant (3 µg/ml).

B1: Human IgG1 G7V with a wildtype γ1 heavy chain (antibody, V domains shown)
VH: EVQLVESGGGLVKPGGSLRLSCAASGFTFSSYSMNWVRQAPGKGLEWVANIKPDGSERHSVDSVKGRFTISRDNSKNSLYLQMNSLRAEDTAVYYCARPGAGRLDYWGQGTLVTVSS
VL: SSELTQDPAVSVALGQTVRITCQGDSLRSYYASWYQQKPGQAPVLVVYGKNNRPSGIPDRFSGSSSGNTASLTITGAQAEDEADYYCNSRDSSGNPWAFGGGTKVTVLG
notes: Naked antibody, made in HEK293-6E (lab scale) or CHO (1 L scale); also called IgG G7V; OMTX007-G7V
Take B1: the EC50 in experiment [1] worked out at 0.4 nM; in experiment [2] it was 0.5 nM. Besides, the binding result in experiment [3], in experiment [4] and in experiment [5] was “binds” each time.
